Legend:
[1] = biological target: T1, PEDV N protein (recombinant nucleocapsid protein of porcine epidemic diarrhea virus) (Porcine epidemic diarrhea virus, strain …, UniProt Q07499); test: SPR; Biacore 3000; purified PEDV N protein (5 µg/ml) amine-coupled to a CM5 chip; Nb1, Nb2, Nb3 flowed at 3 µg/ml each; HBS-EP (10 mM HEPES pH 7.4, 150 mM NaCl, 3 mM EDTA, 0.005% P20), room temperature; 1:1 Langmuir model; settings: both partners purified
T1 construct: also called PEDV N antigen; N-His-tagged recombinant protein; source: recombinant, purified ('highly pure')

[2] = biological target: T2, PEDV N protein (recombinant nucleocapsid protein of porcine epidemic diarrhea virus) (Porcine epidemic diarrhea virus, strain …, UniProt Q07499); test: SPR; Biacore 3000; purified PEDV N protein (5 µg/ml) amine-coupled to a CM5 chip; Nb1, Nb2 and Nb3 each flowed over at 3 µg/ml; HBS-EP (10 mM HEPES pH 7.4, 150 mM NaCl, 3 mM EDTA, 0.005% P20); room temperature; 1:1 Langmuir model
T2 construct: also called N-His recombinant protein; N-His-tagged recombinant protein; source: recombinant, purified

Binder	kon [1]	koff [2]
Nb1 (anti-PEDV N protein nanobody) (VHH) VHH: QVQLQESGGGSVQSGGSLRLSCAVSGYTYSGLCMGWFRQAPGREREGVATIDTDGYTSYTDSVKGRFTISRDNAKNTLLLQMNSLQPEDTAMYYCAADPRTAIYCSTSRSAKWYNHWGQGTQVTVSS	197000 M⁻¹ s⁻¹	
Nb1 (VHH, VHH from a Bactrian camel immunised with PEDV N protein, selected by phage display) VHH: QVQLQESGGGSVQSGGSLRLSCAVSGYTYSGLCMGWFRQAPGREREGVATIDTDGYTSYTDSVKGRFTISRDNAKNTLLLQMNSLQPEDTAMYYCAADPRTAIYCSTSRSAKWYNHWGQGTQVTVSS		0.00206 s⁻¹
